One assay concerns the target soluble Vγ4Vδ1 TCR. The assay can be described thus: flow cytometry on cells. The note with it: anti-His mAb, read off a plot. (A flow cytometer gives signals particle by particle.)
Assay [1] deals with BTNL3.8 heterodimer on 293T cells (human) (UniProt Q6UXE8).
The target in assay [2] is Soluble endothelial protein C receptor (EPCR) (UniProt Q9UNN8). The assay can be described thus: SPR. Conditions: parent: est. 1; read off a plot.
In assay [3] the target is BTNL3 IgV domain (wild type) (UniProt Q6UXE8). Description: SPR. The note with it: parent: est. 1; read off a plot.
The target in assay [4] is LES Vγ4Vδ5 TCR, soluble, wild type (human). Description: SPR; competition: wt EPCR (2500-3000 RU) immobilised on the chip; LES TCR injected at 12.5 μM with increasing BTNL3 IgV (3.5-113 μM) or BTNL8 IgV (2.2-70.5 μM); response as percent of that without competitor.
Assay [5] has the same target. The assay can be described thus: ITC; iTC200; 20°C; 20mM Tris pH 8, 50 mM NaCl; TCR in the cell at 70 μM, BTNL3 at ten-fold higher concentration titrated as 20 × 2 μl injections; single independent binding site model. In general terms: ITC needs no label: the signal is the heat of the interaction.
The target is the same in assay [6]. Description: SPR; BIAcore3000; biotinylated wt or mutant LES TCR (1000-3500 RU) captured on streptavidin-coated CM5 chip; analyte (BTNL3 or BTNL8 IgV, EPCR) 1-200 μM; HBS-EP; 25°C; equilibrium analysis. Background: In SPR one partner is held on a chip, and binding of the other changes the refractive index at the surface.
The target is the same in assay [7]. The assay is described as above. This is another data set of the same source.
Where [8] appears, read: soluble Vγ4Vδ1 0.1 µg/ml (read from x axis), parent: est. 9.0.
[9] abbreviates: soluble Vγ4Vδ1 10 µg/ml (read from x axis), parent: est. 31.
[10] abbreviates: soluble Vγ4Vδ1 about 2 µg/ml (read from x axis), parent: est. 16.

“And” between values parts separate entries of the source, which are not always exact repeats. Identical values can stand only once. Some results are limits rather than exact numbers.

UniProt Q6UXE8, sequence (Q6UXE8 whole entry, looked up, the tested form may be a part): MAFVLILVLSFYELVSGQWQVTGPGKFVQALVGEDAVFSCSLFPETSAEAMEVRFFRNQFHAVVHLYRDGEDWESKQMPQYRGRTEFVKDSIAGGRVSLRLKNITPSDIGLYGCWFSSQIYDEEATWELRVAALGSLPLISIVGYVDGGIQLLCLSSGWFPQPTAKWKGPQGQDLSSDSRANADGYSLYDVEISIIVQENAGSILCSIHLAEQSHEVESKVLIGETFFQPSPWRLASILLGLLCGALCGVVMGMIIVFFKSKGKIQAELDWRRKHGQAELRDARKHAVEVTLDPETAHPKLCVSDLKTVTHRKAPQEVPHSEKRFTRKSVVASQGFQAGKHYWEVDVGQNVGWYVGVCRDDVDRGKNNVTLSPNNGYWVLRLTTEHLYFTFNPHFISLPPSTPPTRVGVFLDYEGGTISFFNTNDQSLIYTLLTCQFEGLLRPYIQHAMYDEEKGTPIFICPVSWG
UniProt Q9UNN8, sequence (Q9UNN8 whole entry, looked up, the tested form may be a part): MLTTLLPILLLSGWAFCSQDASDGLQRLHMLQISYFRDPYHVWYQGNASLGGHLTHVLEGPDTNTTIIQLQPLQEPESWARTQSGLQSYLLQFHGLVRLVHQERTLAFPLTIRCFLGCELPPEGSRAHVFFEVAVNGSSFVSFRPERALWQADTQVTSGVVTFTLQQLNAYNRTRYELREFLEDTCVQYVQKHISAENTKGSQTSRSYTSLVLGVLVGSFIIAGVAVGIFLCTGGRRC

As to “BTNL3.8 heterodimer on 293T cells (from UniProt Q6UXE8;Q6UX41) EDWESK>KDQPFM (in BTNL3)”, the response (gMFI fold relative to ctrl) with soluble Vγ4Vδ1 TCR (setting [8]) is 4.1; with soluble Vγ4Vδ1 TCR (setting [9]) it was 7.7; in the assay with soluble Vγ4Vδ1 TCR (setting [10]) it was 5.

For the molecule “BTNL3.8 heterodimer on 293T cells (from UniProt Q6UXE8;Q6UX41) NQFHA>GQFSS (in BTNL3)”, the response (gMFI fold relative to ctrl) with soluble Vγ4Vδ1 TCR (setting [8]) was determined as 1.2; with soluble Vγ4Vδ1 TCR (setting [9]), 1.2; in the assay with soluble Vγ4Vδ1 TCR (setting [10]), 1.4.

In turn, “mo5 Vγ7Vδ2-2 TCR with the HV4 loop of human Vγ4, on Jurkat 76 cells” displayed a CD69 expression on transduced J76 cells in response to BTNL3.8-expressing target cells, over control (flow cytometry) in assay [1] above 3 fold.

Turning to “LES Vγ4Vδ5 TCR, soluble, wild type γ:EGST>AWRY (CDR1)”, the results for the ratio to parent in assay [2] and in assay [3] were 6.6 and 1.3, respectively.

Turning to “LES Vγ4Vδ5 TCR, soluble, wild type δ:RGYTG>EGSKW (CDR3)”, the ratio to parent in assay [3] was determined as 0.3.

With “LES Vγ4Vδ5 TCR, soluble, wild type γ:…>ATWEG--YKKLF (CDR3, as aligned)”, in assay [3], the ratio to parent turned out to be 0.72.

“LES Vγ4Vδ5 TCR, soluble, wild type δ:SSIK>RYRE (CDR2)”: the ratio to parent in assay [2] amounted to 1; in assay [3], 0.88.

Regarding “LES Vγ4Vδ5 TCR, soluble, wild type δ:NSMF>YRKS (CDR1)”, the ratio to parent in assay [2] was determined as 0.25; in assay [3], 0.6.

As to “LES Vγ4Vδ5 TCR, soluble, wild type γ:…>… (HV4; K>N; M>L)”, the ratio to parent in assay [2] was determined as 1.4; in assay [3] it was 0.38.

As to “LES Vγ4Vδ5 TCR, soluble, wild type γ:…>… (HV4; D>Y; G>A)”, the ratio to parent in assay [2] stood at 0.53.

On to “LES Vγ4Vδ5 TCR, soluble, wild type γ:DSYT>KYSR (CDR2)”, for which the figures for the ratio to parent in assay [2] and in assay [3] were 1.8 and 0.066, respectively.

For “mo5 Vγ7Vδ2-2 TCR with the CDR2 and HV4 loops of human Vγ4, on Jurkat 76 cells”, the CD69 expression on transduced J76 cells in response to BTNL3.8-expressing target cells, over control (flow cytometry) in assay [1] was above 3 fold. Moreover, in assay [1] (scale: % of the TCR downmodulation of WT Vγ4 TCR transductants), the TCR downmodulation on transduced J76 cells after co-culture with 293T.L3L8 cells, against WT Vγ4 TCR transductants (flow cytometry) came out at 90.

B1: BTNL3 IgV domain (wild type) (domain or fragment)
chain: QWQVTGPGKFVQALVGEDAVFSCSLFPETSAEAMEVRFFRNQFHAVVHLYRDGEDWESKQMPQYRGRTEFVKDSIAGGRVSLRLKNITPSDIGLYGCWFSSQIYDEEATWELRV
In general, Kd refers to the concentration at which binding is half-saturated. In assay [4], B1 had a percent of LES TCR binding to EPCR left with the competitor below 40%. The Kd in assay [5] was 3.5 µM; in assay [6], 15 to 25 µM and 20.7 µM; in assay [7], 22.1 µM and 20.9 µM. The dH in assay [5] was -33.9 kJ/mol.

The values above are taken from paper PMC6868513.
